# “Also recorded” adds a separate entry of the source.
# Legend:
# cellular migration = assay: In vitro scratch test wound healing assay; format: cell-based; details: EGFL6 treated cells
# [1] = tested on: phosphorylation of SHP2, ERK, FAK and SRC in SKOV3 cells; assay: Western blot of EGFL6 mediated signal activation; format: cell-based
# Protocol: Lastly, EGFL6 mediated signal activation was evaluated. Integrin signaling has been reported to induce the […] of FAK, SRC and SHP2 among others. […] Phosphorylation of all of these proteins could be blocked with Echistatin.
# Cellular signaling changes associated with EGFL6 was next examined. […] EGFL6 treatment was associated with increased p-SHP2 levels specifically in ALDH^+ cells (FIG. 4Ei). […] SHP2 phosphorylation could be blocked with Echistatin (FIG. 4Eiii) or an EGFL6-blocking antibody. SHP2 phosphorylation was associated with increased p-ERK levels (4Ei-iii).
# (§1) SKOV3, A2008, and A2780 were maintained in RPMI-1640, supplemented with 10% FBS with 1% Penicillin/Streptomycin, and cultured in humidified atmosphere of 5% CO2 at 37° C. For all in vitro cell culture experiments, isolated cells were allow to recover overnight following FACS, prior to treatment. Infantile Hemangioma Stem cells were maintained in EBM-2 medium with growth factor supplement cocktails in culture plates coated with fibronectin. For Echistatin and EGFL6 treatment, cells were pretreated with Echistatin (Sigma, 100 nM) for 24 hours prior to EGFL6 treatment. All transfections were performed using FuGene6 reagent (Promega) per company protocol.
# EGFL6 monoclonal antibody producing hybridoma cells were maintained in RPMI medium supplemented with 10% FBS. For antibody purification, the cells were cultured in reduced FBS (5%). Culture supernatant was collected and cell debris was removed by centrifugation. EGFL6 antibody was pulled down using Protein G Agarose heeds, Fast Flow (Millipore), washed and eluded with 50 mM glycine PH.2.7. Antibody solution was immediately neutralized to PH 7.2-7.4 with Tris (Ph 9.0, final concentration 25 mM). NaCl was added to final concentration of 150 mM. EGFL6 antibody was applied at 5 μg/ml for in vitro cell treatment and 50 μg/mouse for in vivo treatment.
# [2] = tested on: primary ALDH+ and ALDH(−) cells; assay: Single cell microfluidic culture, cell division type; format: cell-based, human
# Description: For primary cells, it was observed that over 50% of untreated ALDH^(−) cells underwent no division over 5 days, while remaining cells underwent symmetric division. […] 20% of ALDH^+ cells underwent no division. EGFL6 treatment of primary ALDH^+ cells was associated with a 1.9-fold increase in the number of ALDH^+ cells undergoing asymmetric division (FIG. 3Dii). EGFL6 treatment was associated with an increase in total cell numbers (90 EGFL6 treated cells yielded 585 total cells while 82 mock-treated cells yielded 451 cells).
# Informed consent was obtained from all patients before tissue procurement. All studies were performed with the approval of the Institutional Review Board of the University of Michigan. All tumors were stage III or IV epithelial ovarian or primary peritoneal cancer. Tumors were mechanically dissected into single-cell suspensions and isolated on a ficoll gradient as previously described (see, e.g., Pulaski, H. L., et al. J Transl Med 7, 49 (2009)). For ascites, cell pellets were collected by centrifugation; red cells were lysed using ACK buffer (Lonza, Hopkinton, Mass.), washed, passed through a 40-μm filter, then passed 4 times through a Standard Hub Pipetting needle to isolate single cells (see, e.g., Silva, I. A., et al. Cancer Res (2011)).
# [3] = tested on: ALDH+ CSCs in SKOV3 cells; assay: ALDH+ cell percentage and number (ALDEFLUOR FACS); format: cell-based
# Description: It has been shown that aldehyde dehydrogenase enzymatic activity (ALDH) is an excellent marker of ovarian CSCs in SKOV3 cells and primary patient samples (see, e.g., Silva, I. A., et al. Cancer Res (2011); Landen, C. N., Jr., et al. Mol Cancer Ther 9, 3186-3199 (2010); Steg, A. D., et al. Clin Cancer Res 18, 869-881 (2012); Kryczek, I., et al. Int J Cancer 130, 29-39 (2012); Deng, S., et al. PLoS ONE 5, e10277 (2010)). The impact of EGFL6 treatment on the percentage of ALDH^+ CSCs in vitro was next assessed. […] However, given the increase in total cell numbers, the absolute ALDH^+ CSC number remained unchanged (FIG. 3Aiii). […] Human ovarian cancer ascites cells were also treated with EGFL6 in a tumor sphere assay. Once again, treatment with EGLF6 was associated with a reduction in ALDH^+ cell percentages in tumor spheres (FIG. 3B).
# as §1
# FACS assay was performed as previously described (see, e.g., Silva, I. A., et al. Cancer Res (2011)). Briefly, SKOV3 cells or primary ovarian tumor/ascetics cells were stained for ALDH using ALDEFLUOR kit per company protocol (Stem Cell Technologies). DAPI staining was used to exclude non-viable cells. For FACS cell sorting, equal number of ALDH and ALDH^(−) cells were collected for subsequent experiments.
# EGFL6 monoclonal antibody producing hybridoma cells were maintained in RPMI medium supplemented with 10% FBS. For antibody purification, the cells were cultured in reduced FBS (5%). […]
molecule,measurement,setting,value
"EGFL6: recombinant EGFL6-flag protein from transfected HEK293 cells, used purified or as 72 hr supernatant (protein) NAASARHHGLLASARQPGVCHYGTKLACCYGWRRNSKGVCEATCEPGCKFGECVGPNKCRCFPGYTGKTCSQDVNECGMKPRPCQHRCVNTHGSYKCFCLSGHMLMPDATCVNSRTCAMINCQYSCEDTEEGPQCLCPSSGLRLAPNGRDCLDIDECASGKVICPYNRRCVNTFGSYYCKCHIGFELQYISGRYDCIDINECTMDSHTCSHHANCFNTQGSFKCKCKQGYKGNGLRCSAIPENSVKEVLRAPGTIKDRIKKLLAHKNSMKKKAKIKNVTPEPTRTPTPKVNLQPFNYEEIVSRGGNSHGGKKGNEEKMKEGLEDEKREEKALKNDIEERSLRGDVFFPKVNEAGEFGLILVQRKALTSKLEHKDLNISVDCSFNHGICDWKQDREDDFDWNPADRDNAIGFYMAVPALAGHKKDIGRLKLLLPDLQPQSNFCLLFDYRLAGDKVGKLRVFVKNSNNALAWEKTTSEDEKWKTGKIQLYQGTDATKSIIFEAERGKGKTGEIAVDGVLLVSGLCPDSLLSVDD",increase in the rate of wound closure,cellular migration,40%
same,p-FAK levels,[1]; EGFL6 treated SKOV3 cells,modest increase
same,p-SRC levels,[1]; EGFL6 treated SKOV3 cells,modest increase
same,p-SHP2 levels,[1]; treatment of ALDH+ SKOV3 cells,further increase; also recorded: increased
same,p-ERK levels,[1]; treatment of ALDH+ and ALDH(−) cells,increase p-ERK
same,total cells yielded,[2]; from 90 EGFL6 treated primary cells,585 total cells
same,symmetric divisions of ALDH(−) cells,"[2]; primary ALDH(−) cells, 5 days",non-statistically significant increase
same,increase in the number of ALDH+ cells undergoing asymmetric division,[2]; primary ALDH+ cells,1.9 fold
same,percentages of ALDH+ CSCs,[3]; EGFL6 treatment,decreasing percentages; also recorded: reduced
same,absolute ALDH+ CSC number,[3]; increasing concentrations of EGFL6,unchanged
